Assay results from patent US10300107B2, “Compositions and methods for CaMKII inhibitors and uses thereof” (THE REGENTS OF THE UNIVERSITY OF COLORADO, priority 2007, dated 2019).

Tests used:
[1] = target: T1, CaM dissociation from CaMKII (Homo sapiens, UniProt Q9UQM7); assay: TA-CaM dissociation from CaMKII; assay type: binding; conditions: 5 μM; 150 nM CaMKII, 30 nM TA-CaM
T1 construct: made in house; host or cells: baculovirus/Sf9 cells (CaMKII)
Experimental: TA-CaM dissociation was assessed by increased TA-CaM (30 nM) fluorescence after dissociation from CaMKII or its CaM-binding domain (CBD) (150 nM) during a chase with unlabeled CaM (60 μM). Buffer contained 50 mM Hepes pH 7.4, 150 mM KCl, 2 mM MgCl2, 2 mM MgADP, 2 mM CaCl2, and 0.1 mg/ml BSA. Fluorescence was measured in a time scan (1 sec samples) at 365 nm excitation and 415 nm emission wavelength on a spectro-fluorometer (Fluorolog3; Horiba Jobin Yvon) and was corrected for photobleach (FIG. 16).

[2] = tested on: CaMKII T-site mutants W237R and 1205K; assay: Kinase assay with GFP-CaMKIIα T-site mutants; assay type: biochemical; conditions: substrate syntide2
Text: In another example, FIG. 3. […] FIG. 3A represents a model of CaMKII kinase domain (Rosenberg et al., 2005) with the substrate binding S-site (indicated), the T286-region binding T-site (indicated), and the regulatory region (shown as ribbon). The arrow indicates the proposed orientation of CN21a binding to the T-site, when the regulatory region is displaced after activation. […] Results are normalized to maximal kinase activity without inhibitor. Error bars show s.e.m. […] Bound CaMKII was eluted and detected by Western blot.
CaMKII activity assays. Standard CaMKII assays were done for 1 min at 30° C. previously described, with 20 nM CaMKII (subunit, not holoenzyme concentration), 50 mM PIPES pH 7.2, 0.1 mg/ml BSA, 10 mM MgCl2, 100 μM [γ-^32P] ATP (˜1 Ci/mmol), 1 mM CaCl2, 1-2 μM CaM, and 30-60 μM AC2 peptide (or syntide2). The reactions were spotted onto Whatman P81 phosphocellulose paper rectangles (˜2×2.5 cm). To remove free radioactivity, the paper rectangles were rinsed and washed for 30 min under agitation in 0.5% phosphoric acid or water. […] Radioactivity of the bound peptides was quantified in a Beckman 6000TA scintillation counter by the Cherenkov method. Any changes of the standard protocol were done as indicated. For assays of the GFP-CaMKIIα mutants, kinase amounts were normalized by GFP fluorescence in the extract, and total protein was adjusted with Cos-7 extracts.

CaM dissociation from CaMKII [1]: slowed down CaM dissociation from CaMKII
activity of CaMKII T-site mutants W237R and 1205K compared to GFP-CaMKIIα wild type [2]: significantly less affected
B1: CaM-KIIN: natural CaMKII inhibitor protein expressed in brain (protein, UniProt Q7Z7J9 1-78, looked up)
Calcium/calmodulin-dependent …: MSEVLPYGDEKLSPYGDGGDVGQIFSCRLQDTNNFFGAGQNKRPPKLGQIGRSKRVVIEDDRIDDVLKNMTDKAPPGV
